Source: patent US11534478B2, “Compositions and methods for treating cancer” (Biokine Therapeutics Ltd., priority 2015, dated 2022)
Where a SMILES comes first, the peptide text is derived from it. Bridges are numbered along the chain shown (N, C = ends). [ ]: non-standard residue; d: D form. The star is where a group is joined. 2Nal = N[C@@H](Cc1ccc2ccccc2c1)C(=O)O; Benzoyl(4-F) = O=C(c1ccc(F)cc1)*; Cit = NC(=O)NCCC[C@H](N)C(=O)O

Tests used:
KIR2DL3 = KIR2DL3 (Homo sapiens, UniProt P10321+P43628); conditions: cited from earlier work
Chain of KIR2DL3 (P43628 22-341): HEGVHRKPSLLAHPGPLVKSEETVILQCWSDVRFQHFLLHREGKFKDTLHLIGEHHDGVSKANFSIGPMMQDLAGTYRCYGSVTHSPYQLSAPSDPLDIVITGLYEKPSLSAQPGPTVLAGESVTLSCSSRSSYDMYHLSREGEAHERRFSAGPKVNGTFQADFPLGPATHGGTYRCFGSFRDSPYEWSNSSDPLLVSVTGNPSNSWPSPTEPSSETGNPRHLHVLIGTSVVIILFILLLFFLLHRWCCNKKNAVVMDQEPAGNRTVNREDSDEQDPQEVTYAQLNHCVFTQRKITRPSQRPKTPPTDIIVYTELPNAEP
Chain of KIR2DL3 (P10321 25-366): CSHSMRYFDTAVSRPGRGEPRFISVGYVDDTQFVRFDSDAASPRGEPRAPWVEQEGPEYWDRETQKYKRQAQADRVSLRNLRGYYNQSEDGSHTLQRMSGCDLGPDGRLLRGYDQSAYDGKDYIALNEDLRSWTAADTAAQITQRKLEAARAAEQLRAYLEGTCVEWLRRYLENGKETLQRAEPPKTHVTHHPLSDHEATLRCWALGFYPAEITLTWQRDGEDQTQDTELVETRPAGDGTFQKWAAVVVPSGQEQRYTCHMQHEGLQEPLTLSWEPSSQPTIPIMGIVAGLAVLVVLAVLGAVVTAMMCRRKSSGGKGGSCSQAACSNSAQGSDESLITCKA
Chain of KIR2DL3 (P61769 21-119 partner): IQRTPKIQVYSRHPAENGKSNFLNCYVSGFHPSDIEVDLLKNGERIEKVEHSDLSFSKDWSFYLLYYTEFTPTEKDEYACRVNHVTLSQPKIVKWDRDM

[1] = in vivo
ID02 = molecular target: T1, ID02 (Homo sapiens, UniProt Q6ZQW0); conditions: D isomer; cited from earlier work
T1 sequence (Q6ZQW0 1-407): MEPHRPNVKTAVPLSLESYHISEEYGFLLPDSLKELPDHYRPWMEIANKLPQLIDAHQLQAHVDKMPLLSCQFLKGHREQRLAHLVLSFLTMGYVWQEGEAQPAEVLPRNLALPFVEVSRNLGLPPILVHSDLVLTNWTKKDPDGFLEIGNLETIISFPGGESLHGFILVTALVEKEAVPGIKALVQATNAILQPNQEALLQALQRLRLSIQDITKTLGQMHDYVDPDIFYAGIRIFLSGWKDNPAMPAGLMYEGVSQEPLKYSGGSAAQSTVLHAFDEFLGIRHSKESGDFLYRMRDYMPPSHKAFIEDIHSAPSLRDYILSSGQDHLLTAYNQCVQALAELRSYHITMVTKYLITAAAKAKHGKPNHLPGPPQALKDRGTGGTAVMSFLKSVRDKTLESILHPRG

Row | Compound | inhibition of KIR2DL3 (KIR2DL3) | other results
1 | VAPWSNDYL | inhibitors of KIR2DL3 | 
2 | N=C(N)NCCC[C@H](NC(=O)[C@@H]1CSSC[C@H](NC(=O)[C@H](Cc2ccc3ccccc3c2)NC(=O)[C@H](CCCNC(=N)N)NC(=O)[C@H](CCCNC(=N)N)NC(=O)c2ccc(F)cc2)C(=O)N[C@@H](Cc2ccc(O)cc2)C(=O)N[C@@H](CCCNC(N)=O)C(=O)N[C@@H](CCCCN)C(=O)N[C@H](CCCCN)C(=O)N2CCC[C@H]2C(=O)N[C@@H](Cc2ccc(O)cc2)C(=O)N[C@@H](CCCNC(=N)N)C(=O)N[C@@H](CCCNC(N)=O)C(=O)N1)C(N)=O [BL-8040, 4F-benzoyl-Arg-Arg-Nal-Cys-Tyr-Cit-Lys-DLys-Pro-Tyr-Arg-Cit-Cys-Arg-NH2] ({Benzoyl(4-F)}-RR[2Nal]CY[Cit]K[dK]PYR[Cit]CR-NH2; disulfide 4-13 (inferred)) |  | safety and tolerability [1]: safe and well tolerated
3 | VAPWNDAL | inhibitors of KIR2DL3 | 
4 | Cn1cc(C[C@H](N)C(=O)O)c2ccccc21 [Analog 1-MT, 1-methyl tryptophan] |  | specificity for ID02 (ID02): more specific for ID02
